In patent US20110166072A1:

Experiments:
[1] = biological target: integrin αIIbβ3 (on CHO-αIIbβ3 cells) (UniProt P08514); assay: cell adhesion inhibition: CHO-αIIbβ3 cells on coated fibrinogen
[2] = biological target: platelet glycoprotein αIIbβ3 (on human platelets) (human) (UniProt P08514); assay: cell-based or functional assay
[3] = biological target: integrin αvβ3 (on rat osteoclast precursors) (rat); assay: cell-based or functional assay

Row | Substance | IC50 [1] | Platelet aggregation IC50 [2] | Osteoclastogenesis IC50 [3]
1 | HSA-RD (human serum albumin-RD fusion protein) (from UniProt P30403 408-475) (other; other documents disagree on this pair) | 2.75 µM |  | 
2 | AKGDWN (from UniProt P30403 408-475) (ligand; other documents disagree on this pair) | 0.069 µM |  | 
3 | PRPDDL (from UniProt P30403 408-475) (ligand) |  | 3.53 µM | 
4 | AKGDWN (from UniProt P30403 408-475) (ligand) |  | 0.138 µM | 78.4 µM
5 | HSA-RD (human serum albumin-RD fusion protein) (from UniProt P30403 408-475) |  | 0.438 µM | 0.00668 µM
6 | PRGEMP (from UniProt P30403 408-475) (ligand) |  | 4.91 µM | 68.2 µM
7 | PRPDDL (from UniProt P30403 408-475) (ligand; other documents disagree on this pair) | 13.6 µM |  | 
